Laboratory results published in PMC12273567 (The Journal of Biological Chemistry, 2025).

Target: T1, recombinant His-tagged NRF2, full length (UniProt Q16236 1-605)
T1 sequence: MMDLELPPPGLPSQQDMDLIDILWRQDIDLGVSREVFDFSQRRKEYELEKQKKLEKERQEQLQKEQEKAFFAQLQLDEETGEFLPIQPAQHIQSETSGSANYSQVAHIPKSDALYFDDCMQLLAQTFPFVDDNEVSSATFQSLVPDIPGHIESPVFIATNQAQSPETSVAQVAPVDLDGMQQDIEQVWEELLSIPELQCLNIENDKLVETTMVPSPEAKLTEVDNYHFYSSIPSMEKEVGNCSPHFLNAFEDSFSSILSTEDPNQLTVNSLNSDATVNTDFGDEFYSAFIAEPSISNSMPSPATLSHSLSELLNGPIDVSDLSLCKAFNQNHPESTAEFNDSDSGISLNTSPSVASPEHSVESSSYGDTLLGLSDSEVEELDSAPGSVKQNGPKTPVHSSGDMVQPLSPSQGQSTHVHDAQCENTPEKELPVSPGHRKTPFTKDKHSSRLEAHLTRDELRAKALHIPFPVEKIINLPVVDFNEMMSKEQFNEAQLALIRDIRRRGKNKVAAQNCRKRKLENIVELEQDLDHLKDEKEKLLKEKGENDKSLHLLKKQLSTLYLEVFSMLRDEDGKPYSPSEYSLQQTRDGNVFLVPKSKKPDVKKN
Assay: MST

B1: recombinant αB-crystallin (natural protein)
chain: MDIAIHHPWIRRPFFPFHSPSRLFDQFFGEHLLESDLFPTSTSLSPFYLRPPSFLRAPSWFDTGLSEMRLEKDRFSVNLDVKHFSPEELKVKVLGDVIEVHGKHEERQDEHGFISREFHRKYRIPADVDPLTITSSLSSDGVLTVNGPRKQVSGPERTIPITREEKPAVTAAPKK
A Kd of 859 ± 70.1 nM was found for B1 in this work.
